Test results published in patent US20130137748A1 (ONCOTHERAPY SCIENCE, published 2013).

T1: 3×FLAG-WHSC1 (Wolf-Hirschhorn syndrome candidate-1, FLAG-tagged) (human, UniProt O96028 1-1365)
T1 construct: Expressed in 293T cells by transfection; also called FLAG-tagged WHSC1; pCAGGS-n3FH-WHSC1; not shown: 3×FLAG tag from the pCAGGS-n3FH / n3FC vector
T1 sequence: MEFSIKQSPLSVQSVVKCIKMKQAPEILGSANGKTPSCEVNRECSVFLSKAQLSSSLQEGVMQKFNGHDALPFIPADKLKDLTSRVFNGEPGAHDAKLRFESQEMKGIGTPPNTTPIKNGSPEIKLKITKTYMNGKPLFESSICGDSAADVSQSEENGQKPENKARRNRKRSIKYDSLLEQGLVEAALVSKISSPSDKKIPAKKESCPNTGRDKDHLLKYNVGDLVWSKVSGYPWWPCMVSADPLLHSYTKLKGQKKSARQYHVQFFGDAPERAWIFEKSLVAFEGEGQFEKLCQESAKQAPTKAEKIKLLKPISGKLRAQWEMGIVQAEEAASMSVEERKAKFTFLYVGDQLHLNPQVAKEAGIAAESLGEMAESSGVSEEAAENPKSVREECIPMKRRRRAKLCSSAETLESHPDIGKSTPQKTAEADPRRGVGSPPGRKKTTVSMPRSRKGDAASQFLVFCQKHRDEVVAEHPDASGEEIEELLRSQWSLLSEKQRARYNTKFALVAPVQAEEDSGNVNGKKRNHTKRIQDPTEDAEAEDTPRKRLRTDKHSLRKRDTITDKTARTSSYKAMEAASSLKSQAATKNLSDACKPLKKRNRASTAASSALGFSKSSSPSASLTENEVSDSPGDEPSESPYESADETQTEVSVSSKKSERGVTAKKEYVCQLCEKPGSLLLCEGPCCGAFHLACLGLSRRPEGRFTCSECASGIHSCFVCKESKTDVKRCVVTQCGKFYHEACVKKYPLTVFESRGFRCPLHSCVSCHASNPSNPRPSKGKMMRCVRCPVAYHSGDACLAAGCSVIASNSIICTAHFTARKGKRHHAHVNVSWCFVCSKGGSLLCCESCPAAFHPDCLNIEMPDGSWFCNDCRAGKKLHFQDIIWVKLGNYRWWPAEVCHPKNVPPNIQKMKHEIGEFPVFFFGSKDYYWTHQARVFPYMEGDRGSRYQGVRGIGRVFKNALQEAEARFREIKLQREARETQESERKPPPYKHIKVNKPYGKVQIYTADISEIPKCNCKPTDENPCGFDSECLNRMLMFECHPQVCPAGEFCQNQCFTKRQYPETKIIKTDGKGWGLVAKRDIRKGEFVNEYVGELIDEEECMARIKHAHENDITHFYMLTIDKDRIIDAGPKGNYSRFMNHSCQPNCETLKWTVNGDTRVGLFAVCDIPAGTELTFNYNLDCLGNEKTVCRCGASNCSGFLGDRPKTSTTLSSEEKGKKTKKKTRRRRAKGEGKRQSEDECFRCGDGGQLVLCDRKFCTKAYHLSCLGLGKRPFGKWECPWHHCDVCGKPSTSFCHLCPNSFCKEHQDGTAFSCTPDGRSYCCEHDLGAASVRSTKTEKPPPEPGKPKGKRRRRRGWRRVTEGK

T2: beta-catenin
T2 chain: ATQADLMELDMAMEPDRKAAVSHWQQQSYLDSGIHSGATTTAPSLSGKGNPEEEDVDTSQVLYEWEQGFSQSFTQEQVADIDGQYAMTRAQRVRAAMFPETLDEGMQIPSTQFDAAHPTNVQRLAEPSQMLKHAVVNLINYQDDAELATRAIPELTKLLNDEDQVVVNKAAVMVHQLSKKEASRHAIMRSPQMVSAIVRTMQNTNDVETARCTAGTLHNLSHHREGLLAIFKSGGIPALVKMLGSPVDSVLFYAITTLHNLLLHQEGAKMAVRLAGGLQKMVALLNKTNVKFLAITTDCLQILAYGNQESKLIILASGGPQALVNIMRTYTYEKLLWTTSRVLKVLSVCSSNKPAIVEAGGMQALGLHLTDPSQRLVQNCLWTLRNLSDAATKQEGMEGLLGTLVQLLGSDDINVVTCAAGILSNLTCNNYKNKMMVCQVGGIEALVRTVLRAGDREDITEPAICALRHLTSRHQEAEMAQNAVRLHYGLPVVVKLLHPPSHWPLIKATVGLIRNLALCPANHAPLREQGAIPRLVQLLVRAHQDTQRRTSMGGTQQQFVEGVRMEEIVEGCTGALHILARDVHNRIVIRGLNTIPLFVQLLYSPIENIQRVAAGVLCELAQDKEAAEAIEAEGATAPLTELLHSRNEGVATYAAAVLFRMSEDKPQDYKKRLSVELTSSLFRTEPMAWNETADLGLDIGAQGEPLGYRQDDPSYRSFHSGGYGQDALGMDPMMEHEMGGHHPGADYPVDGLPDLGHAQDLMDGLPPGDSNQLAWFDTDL

B1: HA-beta-catenin (other)
chain: MATQADLMELDMAMEPDRKAAVSHWQQQSYLDSGIHSGATTTAPSLSGKGNPEEEDVDTSQVLYEWEQGFSQSFTQEQVADIDGQYAMTRAQRVRAAMFPETLDEGMQIPSTQFDAAHPTNVQRLAEPSQMLKHAVVNLINYQDDAELATRAIPELTKLLNDEDQVVVNKAAVMVHQLSKKEASRHAIMRSPQMVSAIVRTMQNTNDVETARCTAGTLHNLSHHREGLLAIFKSGGIPALVKMLGSPVDSVLFYAITTLHNLLLHQEGAKMAVRLAGGLQKMVALLNKTNVKFLAITTDCLQILAYGNQESKLIILASGGPQALVNIMRTYTYEKLLWTTSRVLKVLSVCSSNKPAIVEAGGMQALGLHLTDPSQRLVQNCLWTLRNLSDAATKQEGMEGLLGTLVQLLGSDDINVVTCAAGILSNLTCNNYKNKMMVCQVGGIEALVRTVLRAGDREDITEPAICALRHLTSRHQEAEMAQNAVRLHYGLPVVVKLLHPPSHWPLIKATVGLIRNLALCPANHAPLREQGAIPRLVQLLVRAHQDTQRRTSMGGTQQQFVEGVRMEEIVEGCTGALHILARDVHNRIVIRGLNTIPLFVQLLYSPIENIQRVAAGVLCELAQDKEAAEAIEAEGATAPLTELLHSRNEGVATYAAAVLFRMSEDKPQDYKKRLSVELTSSLFRTEPMAWNETADLGLDIGAQGEPLGYRQDDPSYRSFHSGGYGQDALGMDPMMEHEMGGHHPGADYPVDGLPDLGHAQDLMDGLPPGDSNQLAWFDTDL
notes: Co-transfected with 3×FLAG-WHSC1 into 293T cells and precipitated with anti-HA agarose from nuclear and cytoplasmic fractions; also called HA-tagged beta-catenin; not shown: HA tag
B2: WHSC1 (expressed from the pCAGGS-WHSC1 vector) (protein)
chain: T1 sequence

Experiments:
[1] = target: T1, 3×FLAG-WHSC1 (Wolf-Hirschhorn syndrome …); assay: anti-HA immunoprecipitation from nuclear and cytoplasmic fractions of 293T cells co-transfected with HA-beta-catenin and 3×FLAG-WHSC1, then immunoblot
Experimental: [FIG. 5B-D](B) Silver staining pattern of interacting proteins with WHSC1. pCAGGS-n3FH-WHSC1 vectors were transfected into 293T cells. After 48 h, interacting protein partners of WHSC1 were enriched by anti-FLAG immunoprecipitation, separated by SDS-PAGE and silver stained. The different bands compared with a control lane were cut out and identified by mass spectrometry. Western blot was performed to confirm the expression of FLAG-WHSC1 using anti-FLAG antibody. (C) Immunoprecipitants from lysates of 293T cells using anti-FLAG M2 agarose (SIGMA) were immunoblotted with anti-FLAG (WHSC1), IQGAP1, TIAM1, AKT2 and beta-catenin antibodies. (D). HA-beta-catenin and 3×FLAG-WHSC1 vectores were transfected into 293T cells, and cell lysates were fractionated by NE-PER nuclear and cytoplasmic ex-traction kit (Thermo Sciecntific). Immunoprecipitants from fractionated lysates using anti-HA agarose (SIGMA) were immunoblotted with anti-FLAG and HA antibodies. UHRF1 was used as a marker of a nuclear protein, and Rho A was used a marker of a cytoplasmic protein.

beta-catenin = target: T2, beta-catenin

Row | Binder | binding result [1] | in vitro methyltransferase assay (beta-catenin)
1 | B1 | binds | 
2 | B2 |  | no positive signals were observed (data not shown)
